Laboratory results published in PMC5805785, “Site-specific phosphorylation of TRANSPARENT TESTA GLABRA1 mediates carbon partitioning in Arabidopsis seeds” (Nature Communications, 2018).
Each block holds one molecule with its values, some of them ahead of it.

Legend:
[1] = target: T1, MBP-TT2 (Arabidopsis thaliana) (UniProt Q9FJA2); test: EMSA; conditions: LightShift Chemiluminescent EMSA kit (Pierce); buffer, salt, pH and temperature not stated
T1 sequence: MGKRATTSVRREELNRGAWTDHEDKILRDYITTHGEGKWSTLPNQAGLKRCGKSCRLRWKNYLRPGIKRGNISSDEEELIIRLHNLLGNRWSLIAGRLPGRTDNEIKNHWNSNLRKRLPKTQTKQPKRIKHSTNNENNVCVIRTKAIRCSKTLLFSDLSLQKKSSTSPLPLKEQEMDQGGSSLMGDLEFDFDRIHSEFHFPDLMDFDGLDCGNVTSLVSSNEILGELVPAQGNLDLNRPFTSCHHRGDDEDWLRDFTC

[2] = target: T1, MBP-TT2 (Arabidopsis thaliana); test: competition; conditions: LightShift Chemiluminescent EMSA kit (Pierce); buffer, salt, pH and temperature not stated
[3] = target: T2, MBP-TT2;MBP-TTG1 (Arabidopsis thaliana;Arabidopsis thaliana) (UniProt Q9FJA2+Q9XGN1); test: EMSA; conditions: LightShift Chemiluminescent EMSA kit (Pierce); buffer, salt, pH and temperature not stated
T2 sequence 1: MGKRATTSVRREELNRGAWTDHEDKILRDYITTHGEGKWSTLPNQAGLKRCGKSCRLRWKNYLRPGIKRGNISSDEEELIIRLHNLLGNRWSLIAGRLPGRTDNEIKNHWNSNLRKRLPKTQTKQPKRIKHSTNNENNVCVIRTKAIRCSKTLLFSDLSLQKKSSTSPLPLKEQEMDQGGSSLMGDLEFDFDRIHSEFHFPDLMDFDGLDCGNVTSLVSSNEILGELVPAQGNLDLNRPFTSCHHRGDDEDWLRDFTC
T2 sequence 2: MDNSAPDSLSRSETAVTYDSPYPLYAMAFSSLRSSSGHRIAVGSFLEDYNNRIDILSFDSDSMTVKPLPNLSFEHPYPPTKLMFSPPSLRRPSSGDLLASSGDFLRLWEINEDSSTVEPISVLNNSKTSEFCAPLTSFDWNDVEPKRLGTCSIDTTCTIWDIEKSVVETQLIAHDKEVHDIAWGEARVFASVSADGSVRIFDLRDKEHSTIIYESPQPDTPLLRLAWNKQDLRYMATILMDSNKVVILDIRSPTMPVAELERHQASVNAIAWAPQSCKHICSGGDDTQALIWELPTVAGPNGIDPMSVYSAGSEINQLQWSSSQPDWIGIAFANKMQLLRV

[4] = target: T3, MBP-TTG1 (TRANSPARENT TESTA GLABRA1) (Arabidopsis thaliana, UniProt Q9XGN1 1-341); test: pull-down; MBP, MBP-TTG1, MBP-TTG1^S215E and MBP-TTG1^S215A on amylose beads as baits; TT2-His as prey, detected with anti-His; conditions: both partners purified
T3 construct: TRANSPARENT TESTA GLABRA1 (TTG1), Arabidopsis thaliana, WD40 repeat protein; cDNA cloned into pMAL-c2x; also called recombinant MBP-TTG1; source: E. coli Rossetta (DE3), IPTG-induced, soluble fusion protein on amylose resin (methods); called 'in vitro-translated' in the results for the GST pull-down
T3 sequence (looked up): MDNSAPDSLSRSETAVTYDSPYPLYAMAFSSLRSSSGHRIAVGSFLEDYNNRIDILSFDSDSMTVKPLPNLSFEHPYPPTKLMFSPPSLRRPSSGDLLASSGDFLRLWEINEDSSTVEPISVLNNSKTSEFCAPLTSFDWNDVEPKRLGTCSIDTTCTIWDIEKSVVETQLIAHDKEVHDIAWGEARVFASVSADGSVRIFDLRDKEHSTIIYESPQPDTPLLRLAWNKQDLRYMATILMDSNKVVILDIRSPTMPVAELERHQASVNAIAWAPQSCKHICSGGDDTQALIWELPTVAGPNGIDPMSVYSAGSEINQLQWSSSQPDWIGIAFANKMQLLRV

[5] = target: T4, MBP-TTG1^S215A (Arabidopsis thaliana, UniProt Q9XGN1 1-341, S215A); test: as above; conditions: both partners purified
T4 construct: TRANSPARENT TESTA GLABRA1 (TTG1), Arabidopsis thaliana; mutated cDNA cloned into pMAL-c2x; source: E. coli Rossetta (DE3), soluble fusion protein immobilized on amylose beads
T4 sequence (looked up): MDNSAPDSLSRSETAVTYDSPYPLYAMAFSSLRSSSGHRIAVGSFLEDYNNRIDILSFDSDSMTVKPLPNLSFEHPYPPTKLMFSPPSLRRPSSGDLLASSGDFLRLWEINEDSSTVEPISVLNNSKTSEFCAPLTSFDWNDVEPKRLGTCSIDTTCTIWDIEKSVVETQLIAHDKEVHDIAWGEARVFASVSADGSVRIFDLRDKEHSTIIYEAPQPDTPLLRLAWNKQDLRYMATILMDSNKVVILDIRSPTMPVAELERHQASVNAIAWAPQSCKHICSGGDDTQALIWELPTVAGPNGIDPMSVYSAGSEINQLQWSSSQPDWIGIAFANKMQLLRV

[6] = target: T3, MBP-TTG1 (TRANSPARENT TESTA GLABRA1); test: native gel or EMSA; EMSA supershift: recombinant MBP-TT2 and MBP-TTG1 incubated together with the biotinylated native GL2 probe (AC-rich motif); conditions: both partners purified

Molecule: ATAATATATAAGGAAGAAGGAGTGCGAGGAGAAGAGGGAAGAGATCATAATTAAGCAAAGAAGCTAGCTAGGGACAGGATTTGTATGTCAATGGCCGTCGACATGTCTTCAAAAAAAAAAAAAAAAGACTTTTTCTCCTCTCCAGCCCTCTCTCTATCTCTCGTATACTACTCTCTCTTTTCTACATACATGTACTTGCTAGCTCTCACATAAACATATATT (double strand) [GL2 mutated probe]
binding [1]: no binding

Molecule: ATAATATATAAGGAAGAAGGAGTGCGAGGAGAAGAGGGAAGAGATCATAATTAAGCAAAGAAGCTAGCTAGGGACAGGATTTGTATGTCAATGGCCGTCGACATGTCTTCCAAACAACCCACCAAAGACTTTTTCTCCTCTCCAGCCCTCTCTCTATCTCTCGTATACTACTCTCTCTTTTCTACATACATGTACTTGCTAGCTCTCACATAAACATATATT (double strand) [GL2 native competitor]
binding [2]: binds

Molecule: ATAATATATAAGGAAGAAGGAGTGCGAGGAGAAGAGGGAAGAGATCATAATTAAGCAAAGAAGCTAGCTAGGGACAGGATTTGTATGTCAATGGCCGTCGACATGTCTTCCAAACAACCCACCAAAGACTTTTTCTCCTCTCCAGCCCTCTCTCTATCTCTCGTATACTACTCTCTCTTTTCTACATACATGTACTTGCTAGCTCTCACATAAACATATATT (double strand) [GL2 native probe]
binding [3]: binds | binding [1]: binds

binding result [4]: binds | binding result [5]: binds
B1: TT2-His (natural protein, Arabidopsis thaliana, UniProt Q9FJA2 1-258, looked up)
chain: MGKRATTSVRREELNRGAWTDHEDKILRDYITTHGEGKWSTLPNQAGLKRCGKSCRLRWKNYLRPGIKRGNISSDEEELIIRLHNLLGNRWSLIAGRLPGRTDNEIKNHWNSNLRKRLPKTQTKQPKRIKHSTNNENNVCVIRTKAIRCSKTLLFSDLSLQKKSSTSPLPLKEQEMDQGGSSLMGDLEFDFDRIHSEFHFPDLMDFDGLDCGNVTSLVSSNEILGELVPAQGNLDLNRPFTSCHHRGDDEDWLRDFTC
notes: TRANSPARENT TESTA2 (TT2; MYB123), Arabidopsis thaliana; cDNA cloned into pET28a; also called MYB123; source: E. coli Rossetta (DE3), IPTG-induced, soluble fusion protein

binding result [6]: binds
B2: MBP-TT2 (natural protein, Arabidopsis thaliana, UniProt Q9FJA2 1-258, looked up)
chain: MGKRATTSVRREELNRGAWTDHEDKILRDYITTHGEGKWSTLPNQAGLKRCGKSCRLRWKNYLRPGIKRGNISSDEEELIIRLHNLLGNRWSLIAGRLPGRTDNEIKNHWNSNLRKRLPKTQTKQPKRIKHSTNNENNVCVIRTKAIRCSKTLLFSDLSLQKKSSTSPLPLKEQEMDQGGSSLMGDLEFDFDRIHSEFHFPDLMDFDGLDCGNVTSLVSSNEILGELVPAQGNLDLNRPFTSCHHRGDDEDWLRDFTC
notes: TRANSPARENT TESTA2 (TT2; MYB123), Arabidopsis thaliana; cDNA cloned into pMAL-c2x; also called MYB123; source: E. coli Rossetta (DE3), recombinant protein produced as for the pull-down assay
